Results as given in US5840530, “DNA encoding receptors for the beta-2 chain of human IL-12” (Hoffmann-La Roche Inc., dated 1998).

Assays:
[1] = biological target: T1, human IL-12 receptor beta1 and beta2 coexpressed on COS cells (cotransfection of the pEF-BOS beta1 plasmid … (human)); assay: equilibrium binding of 125I-labeled IL-12 to COS cells cotransfected with beta1 and beta2 plasmids, Scatchard analysis, high affinity site
Description: (§1) Recombinant human IL-12 was labeled with ^125I as follows. Iodogen was dissolved in chloroform. 0.05 mg aliquots of Iodogen were dried in 12×150 mm borosilicate glass tubes. For radiolabeling, 1.0 mCi Na[^125I] was added to the Iodogen-coated borosilicate glass tube, which also contained 0.05 ml of Tris-iodination buffer (25 mM Tris-HCL pH 7.5, 0.4M NaCl and 1 mM EDTA) to form a ^125I solution. The ^125I solution was activated by incubating for 6 minutes at room temperature. The activated ^125I solution was transferred to a tube containing 0.05 to 0.1 ml recombinant human IL-12 (31.5 µg) in Tris-iodination buffer. The resulting mixture of the activated ^125I solution and the recombinant human IL-12 was incubated for 6 minutes at room temperature. At the end of the incubation, 0.05 ml of Iodogen stop buffer (10 mg/ml tyrosine, 10% glycerol in Dulbecco's phosphate buffered saline (PBS), pH 7.40) was added and reacted for 3 minutes. The resulting mixture was then diluted with 1.0 ml Tris-iodination buffer containing 0.25% bovine serum albumin (BSA), and applied to a Bio-Gel P10DG desalting column for chromatography. The column was eluted with Tris-iodination buffer containing 0.25% BSA. […] The TCA precipitable radioactivity (10% TCA final concentration) was typically in excess of 95% of the total radioactivity. […]

[2] = biological target: T1, human IL-12 receptor beta1 and beta2 …; assay: equilibrium binding of 125I-labeled IL-12 to COS cells cotransfected with beta1 and beta2 plasmids, Scatchard analysis, low affinity site
Description: as §1

B1: recombinant human IL-12 (Interleukin-12) (ligand)
chain 1: IWELKKDVYVVELDWYPDAPGEMVVLTCDTPEEDGITWTLDQSSEVLGSGKTLTIQVKEFGDAGQYTCHKGGEVLSHSLLLLHKKEDGIWSTDILKDQKEPKNKTFLRCEAKNYSGRFTCWWLTTISTDLTFSVKSSRGSSDPQGVTCGAATLSAERVRGDNKEYEYSVECQEDSACPAAEESLPIEVMVDAVHKLKYENYTSSFFIRDIIKPDPPKNLQLKPLKNSRQVEVSWEYPDTWSTPHSYFSLTFCVQVQGKSKREKKDRVFTDKTSATVICRKNASISVRAQDRYYSSSWSEWASVPCS
chain 2: RNLPVATPDPGMFPCLHHSQNLLRAVSNMLQKARQTLEFYPCTSEEIDHEDITKDKTSTVEACLPLELTKNESCLNSRETSFITNGSCLASRKTSFMMALCLSSIYEDLKMYQVEFKTMNAKLLMDPKRQIFLDQNMLAVIDELMQALNFNSETVPQKSSLEEPDFYKTKIKLCILLHAFRIRAVTIDRVMSYLNAS
- Kd [1]: 0.05 nM
- Kd [2]: 5 nM
